Reference: paper PMC3319870 (New Biotechnology, 2011)

Target: Fyn SH3 domain, His6-tagged SUMO fusion (human, UniProt P06241 82-143)
Assay: ELISA

Chain of Fyn SH3 domain, His6-tagged SUMO fusion (P06241 82-143): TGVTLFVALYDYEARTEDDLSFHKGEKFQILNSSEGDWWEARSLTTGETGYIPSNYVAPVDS

IC50: ~440 nM
B1: proline-rich peptide VSLARRPLPPLPGGK (peptide)
peptide: VSLARRPLPPLPGGK
